Experimental findings from the nanobody polyreactivity screen of Harvey et al. (2022) are described below.

The data set can be described thus: yeast display, Sf9 membrane polyspecificity reagent, FACS + sequencing; frameworks hold sequencing errors. The essentials:
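Nanobodies came from a synthetic yeast display library in Saccharomyces cerevisiae BJ5465, induced with galactose for 36–48 hours and stained for 1 hour at 4 °C with 10% biotinylated, detergent-solubilized Sf9 membrane reagent. Cells were enriched on streptavidin microbeads and then FACS-sorted, with low and high (top ~1%) gates set on anti-HA fluorescence for expression and streptavidin fluorescence for reagent binding. Each polyreactivity label reflects the gate a clone came from. Genes were amplified by colony PCR, sequenced by MiSeq 2 × 250 and filtered by CDR length.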
On to “QVQLVESGGGLVQAGGSLRLSCAASGSTFWYNTMGWYRQAPGKERELVAAITSSGGSTYYADSVKGRFTISRDNAKNTVYLQMNSLKPEDTAVYYCNALHTRTGVKARYYYWGQGTQVTVSS”, for which the “polyreactivity (PSR sort gate)” value is given as “high polyreactivity”.

As for “QVQLVESGGGLVQAGGSLRLSCAASGITIFGYAMGWYRQAPRTERELVAAINYSGDSTYYADSVKGRFTISRDNAKNTVYLQMNSLKPEDTAVYYCAADVRPYYSAYRGRYYYWGQGTQVTVSS”, the “polyreactivity (PSR sort gate)” value is given as “high polyreactivity”.

With “QVQLVESGGGLVQAGGSLRLSCDASGSTSPGYAMGWYRQAPGKERELVAAITFRGTRTYYADSVKGRFTISRDNAKNTVYLQINSLKPEDTAVYYCNVVGYGPNRGRVDYWGQGTQVTVSS”, the “polyreactivity (PSR sort gate)” value is on record as “high polyreactivity”.

Consider “QVQLVESGGGLVQAGGSLRLSCAASGRIFWTNAMGWYRQAPGKERELVAAISYRGGRTYYADSVKGRFTISRDNAKNTVYLQMNSLKPEDTAVYYCAAFTAQGPKYDYWGQGTQVTVSS”, for which the “polyreactivity (PSR sort gate)” value is “high polyreactivity”.

With “QVHLVESGGGLVQAGGSLRLSCAASGRIFSGYAMGWYRQAPGKERELVAAITSGASTNYADSVNGRFTISRDNPKITVYLQLNSLKPVVTAFYYCAATFHSWRGQYLWYDYWGQGTQVTVSS”, the “polyreactivity (PSR sort gate)” value is “low polyreactivity”.

“QDQLVESGGVLVQAGGSLRLSCAASGSIFGYYAMGWYRQAPGKERELVARISYSGGTTYYADSVKGRFTNSRDNAKNTVYLQMNSQIPEDTAVYYCNARIPYSWRYGYWGQGTQVTVSS”: the “polyreactivity (PSR sort gate)” value is given as “high polyreactivity”.

Consider “QVQLVESGGGLVQAGGSLRLSSAASGRIFVYNAMGWYRQAPGKERELVAGISWSGARSHYADSVKGRFTISRDNAKKTVYLLMNSLKPEDTAVYYCAAYPQYRSFQYDYWGQGTQVTVSS”, for which the “polyreactivity (PSR sort gate)” value is “high polyreactivity”.

Take “QVQLVESRGGLVQAGGSLRLSCAASGFTFDIYAMGWYRQAPGKERELVAAINYSGARTYYADSVKGRFTISRDNAKNTVYLQMNSLNPEDTAVYYCNRAARIKYDYWGQGTQVTVSS”: the “polyreactivity (PSR sort gate)” value is “high polyreactivity”.

On to “QVQLVESGGGLVQAGGSLRLSCAASGSTLYVNAMGWYRQAPGKERELVAAISWSGGSTNYADSVKGRFTISRDNAKNTVYLQMNSLKPEDTAVYYCNVDSVVWDNAWYLYDYWGQGTQVTVSS”, for which the “polyreactivity (PSR sort gate)” value is listed as “low polyreactivity”.

On to “QVQLVESGGGLVQAGGSHRLSCAASGSTFNYYAMGWYRQAPGKERELVAAISRGGSTYYADSVKGRFTISRDNAKNTVYLQMNSLKPEDNAVYYCHARPTRIYHGMGFWGQGTQVNVSS”, for which the “polyreactivity (PSR sort gate)” value is “low polyreactivity”.

As to “QDQLVESGGGLVQAGGSLRLSCAASGRLFSQYAMGWYRQAPGKERELVAAISWRTGSTYYADSVKGRFTISRDNAKNTVYLQMNSLKPEDTAVYYCSAANAGRYPYNYSGQGTQVTVSS”, the “polyreactivity (PSR sort gate)” value is recorded as “high polyreactivity”.

Regarding “QVQLVESGGGLVQAGASLRLSCAASGRIFNIYALGWYRQAPGKERELVADITSGGTTYADSVKWRFTISRDNAKNTVYLQMNSLKPEDTAVYYCAAVYRYRNRRDYDYWGQGTQVTVSS”, the “polyreactivity (PSR sort gate)” value was “high polyreactivity”.

Take “QVQLVESGGGLVQAGGSLRLSCAASGIILSENDMGWYRQAPGKERELVAAITSSGSTSYADSVKGRFTISRDNAKNTVYLQMNSLKPEDTAVYYCAADYLNPFPPYQYWKQSYDYWGQGTQVTVSS”: the “polyreactivity (PSR sort gate)” value is on record as “low polyreactivity”.

As for “QDQLVESGGGLVQAGGSLRLSCAASGFTFRHYVMGGSRQAPGKERELVAAIDVRGGSTYYADSVKGRFTISRDNAKNTVYLQMNSLKPEDTAVYYCAKRLIPRLPIMQKMDYWGQGTQVTVSS”, the “polyreactivity (PSR sort gate)” value was “low polyreactivity”.

For “QVQLVESGGGLVQAGGSLRLSCAASGRIFKYYGMGWYRQAPGKERELVAAISRGSSTNYADSVKGRFTISRDNAKNTVYLQMNSLKPEDTAVYYCAVSLRRGGSGYAYDYWGQGTQVTVSS”, the “polyreactivity (PSR sort gate)” value is listed as “high polyreactivity”.

Take “QVQLVESGGGLVQAGGSLRLSCAASGNTIGVNAMGWYRQAPGKERELVAVITSGGGSTYYADSVKGRFTISRDNAKNTVYLQMNSLKPEDTAVYYCARRSYRLYTLGNGYWGQGTQVTVSS”: the “polyreactivity (PSR sort gate)” value is “low polyreactivity”.

“QVQLVESGGGLVQAGGSLRLSCAASGLTFTGYAMGWYRQAPGKERELVAAISRGDSTYYAYSVNGRFTISRDNAKNTVYLQMNSLKPEDTAVYYCAAYKGYGRRPGVSGYYWGQGTQVTVSS”: the “polyreactivity (PSR sort gate)” value was “high polyreactivity”.

As for “QVQLVESGGGLVQAGGSLRLSCAASGRTFGYYTMGWSRQAPGKERDLVATISSDGTTNYADSVKGRFTISRDNAKNTVYLQMNSLKPEDTAVYYCNADFRLQYYYRIYDYWGQGTQVTVSS”, the “polyreactivity (PSR sort gate)” value is listed as “low polyreactivity”.

For the sequence “QVQLEESGGGLVQAGGSLRLSCAASGSISYYYGMGWYRQAPGKERELVAAISTRGGSTYYADSVKGRFTISRDNAKNTVYLQMNSLKPEDTAVYYCNKVYYKRFYYWGQGTQVTVSS”, the “polyreactivity (PSR sort gate)” value is listed as “high polyreactivity”.

As to “QVQLVESGGGLVQAGGSLRLSCAASGSTFPTYAMGWYRQAPGKERELVAAITWSGGSTYYADSVKGRFTISRDNAKNTVYLLMNSLKPEDTAVYYCAKSTGYGRRQKRYDWGQGSQVTVSS”, the “polyreactivity (PSR sort gate)” value was “high polyreactivity”.

As for “QVQLVESGGGLVQAGGSLRLSCAASGITFGYNAMGWYRQAPGKDRELVAAITRSAGSTGYADSVKGRFTISRDNAKNTVYLQMNSLKPEDTAVYYCAAVRLSGSHRYGYWGQGTQVTVSS”, the “polyreactivity (PSR sort gate)” value is “high polyreactivity”.

For “QVQLVESGGVLVQAGGSLRLSCAASGNTFKHYALGGYRQAPGKEREKVAAISRSGASTNYADSVKGRFTISRDNAKNTVYLQMNSLKPEDTAVYYCAAEYSARKAYLYDYWGQGTQVTVSS”, the “polyreactivity (PSR sort gate)” value is “high polyreactivity”.

For the sequence “QVQLVESGGGLVQAGGSLRLSCAASGGTFARYAMGWYRQAPGKERELVAAITRSGGTTYYADSVKGRFTISRDNAKNTVYLQMNSLKPEDTAVYYCAALPIVDYYGYGYWGQGTQVNVSS”, the “polyreactivity (PSR sort gate)” value is reported as “high polyreactivity”.

Take “QVQLVESGGGLVQAGGSLRLSCAASGSIFKWYTMGWYRQAPGKERELVAGISRGGSTYYADSVKGRFTISRDNAKNTVYLQMNSLKPEDTAVYYCAKASAIWRGDVKYYYWGQGTQVTVSS”: the “polyreactivity (PSR sort gate)” value is reported as “high polyreactivity”.

With “QVQLVESGGGLVQAGGSLRLSCAPSGRIFAGYTMGWYRQAPGKERELVAAISWSGGRTYYADSVKGRFTISRDNAKNTVYLQMNSLKPEDTAVYYCAKDGRYYSHYNYWGQGTQVTVSS”, the “polyreactivity (PSR sort gate)” value is reported as “high polyreactivity”.

With “QVQLVESGGGLVQAGGSLRLSCAASGRTFAKYAMGWYRQAPGKERELVAAIRWSGGSTYYADSVKGRFTISRDNAKNTVYLQMNSLKPEDTAVYYCAARPALWGRYRGYDYWGQGTQVTVSS”, the “polyreactivity (PSR sort gate)” value is “high polyreactivity”.

As for “QVQLVESGGGLVQAGGSLRLSCAASGSTFLYYAMGWYRQAPGKERELVARITTRVGRTYYADSVKGRFTISRDNAKNTVYLQMNSLKPEDTAVYYCATGGSKEMDYWGQGTQVTVSS”, the “polyreactivity (PSR sort gate)” value is listed as “high polyreactivity”.

With “QVKLVESGGGLVQAGGSLRLSCAASGRIFIEYARGWYRQAPGKERELVASSTSSGGRTTYADSVKGRFTISRDNAKNTVYLQINSLKPEDTAVYYCNKDYYPRGHTRFGYWGVGTQVTVSS”, the “polyreactivity (PSR sort gate)” value is given as “low polyreactivity”.

“QVQLVESGGGLVPAGGSLRLSCAASGGTFYTYVMGWSSQAPGKERELGAAIAGSGNTYYADSVKGRFTISRDKAKKTVYLQMNSLKPEDTAVYYCAKVLRMYPSGSWYGYWGQGTQVTVSS”: the “polyreactivity (PSR sort gate)” value is “high polyreactivity”.

For “QVQLVESGGGLVQAGGSLRLSCAASGIIFRYNAMGWYRQAPGKERELVAAISTGGSTNYADSVKGRFTISRDNAKNTVYLQMNSLKPEDTAVYYCAADWHRAYGAYDYWGQGTQVTVSS”, the “polyreactivity (PSR sort gate)” value is reported as “low polyreactivity”.

Take “QVQLVESGGGLVQAGGSLRLSCAASGSTFWWTTMGWYRQAPGTERELVAAITTGGGTYYADSVKGRFTISRDNAKNTVYLQMNSLKPEDTAVYYCNADYDSQYHYLLRYDYWGQGTQVTVSS”: the “polyreactivity (PSR sort gate)” value was “low polyreactivity”.

Turning to “QVQLQESGGGLVQAGGSLRLSCAASGNISVTGFMGWYRQAPGKERELVASIGIGGTTYYADSVKGRFSISRDNAKNTVYLQMNSLKPEDTAVYYCAARYLYYAYSYWGQATQVTVSS”, the “polyreactivity (PSR sort gate)” value is reported as “low polyreactivity”.

On to “QVQLVESGGGLVQAGGSLRLSCDATGSIISYNTMGWYRQAPGKERELVAAITWGGRTYYADSVKGRFTISRDNAKNTVYLQMNSLKPEDTAVYYCAKRIRGGAPTYDYWGQRTQVTVSS”, for which the “polyreactivity (PSR sort gate)” value was “low polyreactivity”.

Consider “QVQLVESGGGLVQAGGSLRLSCAASGRTFGRNAMGWYRQAPGERELVAVISRRGSTYYADSVKGRFTISRDNAKNTVYLQMNSLKPEETAVDYCAAYYYIGGKYGSQVYEYDYWGQGTQVTVSS”, for which the “polyreactivity (PSR sort gate)” value was “low polyreactivity”.

For the sequence “QVQLVESGGGLVQAGGSLRLSCAASGFTFTYYAMGWYRQAPGKERELVAAISWNGGSTYYADSVKGRFTISRDNAKNTVYLQMNSLKPEDTAVYYCNAYDYQYFYGYEYDYWGQGTQVTVSS”, the “polyreactivity (PSR sort gate)” value is reported as “high polyreactivity”.

For “QVQLVESGGGLVQAGGSLRLSCAASGFIFDVYAMGWYRQAPGKERELVAAISSSGGRTYYADSVKGRFTISRDNAKNTVYLQMNSLKPEDTAVYYCAAKTHSRTKVYTADYWGQGTQVTVSS”, the “polyreactivity (PSR sort gate)” value is given as “high polyreactivity”.

For the sequence “QVQLVESGGGLVQAGGSLRLSCAASGRTFGSYTMGWYRQAPGKERELVAAISWSGGRTYYADSVKGRFTISRDNAKNTVYLQMNSLKPEDTAVYYCNADAEVVPGEYDYWGQGTQVTVSS”, the “polyreactivity (PSR sort gate)” value is “low polyreactivity”.

On to “QVQLVESGGGLVQAGGSLRLRCAASGRIFWSNAMGWYRQAPGKERELVAAISSGGSTNYADSEKGRFTISRDNAKNTVYLQMNSLKPEDTEVYYCATRGIQRGFSRWGGLDYWGQVTQVTVSS”, for which the “polyreactivity (PSR sort gate)” value is recorded as “low polyreactivity”.

Regarding “QVQLVESGGGLVQAGGSRRLSCAAAGSTFGVIVMGWYREAPGKEREVVAAITKSGGSTYYADSVKGRFTISRDNAKNTVYLQMNSLKPEDTAVYFCIDAWGREYDYWGQGTQVHVSS”, the “polyreactivity (PSR sort gate)” value is on record as “high polyreactivity”.

Regarding “QVQLVESGGGLVQAGGRLRLSCAPSGTTFNPYTMGLYRQAPGKEGELVATITRIGGSTYYADSVKGRFTISRDNAKNTVYLQMNSLKPEDTAVYYCAADHYRSVRWRSNYTYRVNYWGQGTQVTVSS”, the “polyreactivity (PSR sort gate)” value was “high polyreactivity”.

Turning to “QVQLVESGGALVQAGGSLRLSCAASGFTFYKNAMGWYRQAPGKERELVAAISRSAGSTYYADSVKGRFTISRDNAKNTVYFQMNSLKPEDTAVYYCNAVSDVKRYDYWGQGTQVTVSS”, the “polyreactivity (PSR sort gate)” value is “high polyreactivity”.
